Measurements as given in the RNAGym collection of RNA variant scans (doi:10.1073/pnas.2313332121).

B1: TPR t1 (parent)
chain: GACCAAUCUGCCCUCAGAGCUCGAGAACAUCUUCGGAUGCAGAGGAGGCAGGCUUCGGUGGCGCGAUAGCGCCAACGUCCUCAACCUCCAAUGCAUCCCACCACAUGAUGAUGCCUGAAGAGCCUUGGUUUUUUG

Variants of: B1
Test: polymerase ribozyme fitness, log enrichment relative to wild type (log ratio); higher = more active; in vitro selection for triplet polymerase activity
Summary of the method: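 For each subunit of a heterodimeric triplet polymerase ribozyme, a mutant library was built by PCR and transcribed, then taken through a single in vitro selection round in triplicate. Selection involved annealing to a biotinylated primer, the partner subunit and triplets, incubation frozen at −7 °C, gel excision of extended constructs, capture on streptavidin beads and RT-PCR. Genotypes were retained after Illumina sequencing of inputs and outputs only with ≥10 input reads and ≥1 read in each output. Fitness is defined as the logarithm of a genotype's enrichment relative to wild-type enrichment, using inverse-variance-weighted averages across replicates, with the logarithm taken to base 2.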

Row | Variant | polymerase ribozyme fitness (log ratio)
1 | GACCAAUCUGCCCUCAGAGUUCGAGAACAUCUUCGGAUGCAGAGGAGGCAGGCUUCGGUGGCGCGAUAGCGCCAACGUCCUCAACCUCCAAUUCAUCCCACCACAUGAUGAUGCCUGAAGAGCCUUGGUUUUUUG | -3.35
2 | GACCAAUCUGCCCUCAGAGUUCGAGAACAUCUUCGGAUACAGAGGAGGCAGGCUUCGGUGGCGCGAUAGCGCCAACGUCCUCAACCUCCAAUGCAUCCCACCACAUGAUUAUGCCUGAAGAGCCUUGAUUUUUUG | -5.92
3 | GACCAAUCUGCCCUCAGAGUUCGAGAACAUCUUCGGAUGCAGAGGAGUCAGGCUUCGGUGGCGCGAUAGCGCCAACGUCCUCAACCUCCAAUGCAUCCCACCACAUGAUGAUGCCUGAAGAGCCUUGGUUUUUUG | -2.05
4 | GACCAAUCUGCCCUCAGAGUUCGAGAACAUCUUCGGAUGCAGAGGAGGCAGUCUUCGGUGUCGCGAUAGCGCCAACGUCCUCAACCCCCAAUGCAUCCCACCACAUGAUGAUGCCUGAAGAGCCUUGGUUUUUUG | -1.96
5 | GACCAAUCUGCCCUCAGAGUUCGAGAACAUCUUCGGAUGCAGAGGAGGCAGGCUUCGGUGGCGCGAUAGCGUCAACGACCUCAACCUCCAAUGCAUCCCACCACAUGAUGGUGCCUGAAGAGGCUUGGUUUUUUC | -3.01
6 | GACCAAUCUGCCCUCAGAGUUCGAGAACAACUUCGGAUCCAGAGGAGGCAGGUUUUGGUCGCGCGAUAGCGCCAACGUCCUCAACCUCCAACGCAUCCCACCACAUGAUGAUGCCUUAGGAGCCUUGGUUUUUUG | -6.79
7 | GACCAAUCUGCCCUCAGAGUCCGAGAACAUCUUCGGAUGCAGAGGAGGCAGGCUUCGGUGGCGCGAUAGCGCCAACGUCCUCAACCUCCAAUGCAUCCCACCACAUGAUGAUGCCCGAAGAGCCUUGGUUUUUUG | -2.85
8 | GACCAAUCUGCCCUCAGAGUUCGAGAACAUCUUCGUAUGCAGAGGAGGCAGGCUUCGGUGGCGCGAUAGCGCCAACGUCCUCAACCUCCAAUGCAUCCCACCACAUGAUGAUGCCUGAAGAGCCUUGGUUUUUUU | -2.95
9 | GACCAAUCUGCCCUCAGAGUUCGAGAACAUCUUCGGAUGCAGAGGAGGCAGGCUUCGGUGGCGCGAUAGCGCCAACGUCCUCAACCUCCAAUGCAUCCCACCACAUGAUUAUGCCUGAAGAGCCUUGGUUUUUUG | -3.13
10 | GACCAAUCUGCCCUCAGAGUUCGAGAACAUCUUCGGAUGCAGAGUAGGCAGGCUUCGGUGGCGCGAUAGCGCCAACGUCCUCAACCUCCAAUGCAUCCCACCACAUGAUGAUGCCUGAAGAGCCUUGGUUUUUUG | -2.33
11 | GACCAAUCUGCCCUCAGAGUUCGAGAACAUCUUCGGAUGCAGAGAAGGCAGGCUUCGGUGGCGCGAUAGCGCCAACGUCCUCAACCUCCAAUGCAUCCCACCACAUGAUGAUGCCUGAAGAGCCUUGGUUUUUUG | -2.57
12 | GACCAAUCUGCCCUCAGAGUUCGAGAACAUCUUCGGAUGCAUAGGAGGCAGGCUUCGGUGGCGCGAUAGCGCUAACGUCCUCAACCUCCAAUGCAUCCCACCACAUGAUGAUGCCUGAAGAGCCUUGGUUUUUUG | -2.41
13 | GACCAAUCUGCCCUCAGAGUUCGAGAACAUCUUCGAAUGCAGAGGAGCCAGGCUUCGGUGGCGCGAUAGCGCCAACGUCCUCAACCUCCAAUGCAUCCCACCACAUGAUGAUACCUGAAGAGCCUUGGUUUUUUG | 0.28
14 | GACCAAUCUGCCCUCAGAGUUCGAGAACAUCUUCGGAUGCAGAGGAGGCAGGCUUCGGUGGCGCGAUAGCGCCAACGUCCUCAAACUCCAAUGCAUCCCACCACAUGAUGAUGCCUGAAGAGCCUUGGUUUUUUG | -3.94
15 | GACCAAUCUGCCCUCAGAGUUCGAGAACAUCUUCGGAUGCAGAUGAGGCAGGCUUCGGUGGCGCGAUAGCGCCAACGUCCUCAACCUCCAAUGCAUCCCACCACAUGAUGAUGCCUGAAGAGCCUUGGUUUUUUG | -2.46
16 | GACCAAUCUGCCCUCAGAGUUCGAGAACAUCUUCGGAUGCAGAGGAGGCAGGCUUCGGUGGCGCGAUAGCACCAACGUCCUCAACCUCCAAUGCAUCCCACCACAUGAUGAUGCCUGAAGAGCCUUGGUUUUUUG | -1.94
17 | GACCAAUCUGCCCUCAGAGUUCGAGAACAUCUUCGGAUGCAGAGGAGGCAGGCUUCGGUGGCGCGAUAGCGCCAACGUCCUCAACCUCCAAUGCAUCCCACCACAUGAUGAAGCCUGAAGAGCCUUGGUUUUUUG | 0.887
18 | GACCAAUCUGCCCUCAGAGUUCGAGAACAUCUUCGGAUGCAGAGGAGGCAGGCUUCGGUGGCGCGAUAGCGCUAACGUCCUCAACCUCCAAUGCAUCCCACCACAUGAUUAUGCCUGAAUGGCCUUGGUUUUUUG | -3
19 | GACCAAUCUGCCCUCAGAGUUCGAGAACAUCUUCGGAUGCAGAGGAGGCAGGCUUCGGUGGCGCGAUAUCGCCAACGUCCUCAACCUCCAAUGCAUCCCACCACAUGAUGAUGCCUGAAGAGCCUUGGUUUUUUG | -0.346
20 | GACCAAUCUGCCCUCAGAGUUCGAGAACAUCUUCGGAUGCAGAGGAGGCAGGCUUCGGUGGCGCGAUAGCGCUAACGUCCUCAACCUCCAAUGCAUCCCACCACAUGAUGAUGCCUGAAGAGCCUUGGUUUUUUG | -1.6
21 | GACCAAUCUGCCCUCAGAGUUCGAGAACAUCUUCGGAUGCAGAGGAGGCAGGCUUCGGUGACGCGAUAGCGCCAACGUCCUCAACCUCCAAUGCAUCCCACCACAUGAUGAUGCCUGAAGAGCAUUGGUUUUUUC | 0.689
